Patent publication US20100272644A1 (UNIVERSITY OF THE SCIENCES IN PHILADELPHIA, published 2010)
Ends that are not written are not given here. fluorescein = fluorescein conjugated to the primary amine of the Lys side chain through an MHS ester

Molecular target: defatted HSA (human serum albumin) (human, UniProt P02768 25-609)
Experiment: native acrylamide gel shift, fluorescein-labeled peptide (25 pmol) with defatted HSA (100 pmol)

B1: fatty acid-conjugated faTraE peptide (peptide)
peptide: CHLDAHWK(fluorescein)G
modifications: not fully specified (residue 1)
notes: also called fatty acid-modified peptide; HOOC-(CH2)15-S-S-peptide
binding result: binds
